Assay results reported in paper doi:10.1101/2024.10.06.616851.

Target: intracellular (IC) wildtype penton of ASFV, HA-tagged (African swine fever virus (ASFV) Georgia 2007/1) (UniProt Q65190)
Assay: non-reducing SDS-PAGE with Western blot

“intracellular (IC) wildtype penton of ASFV, HA-tagged (from UniProt Q65190 1-240) (natural protein)” gave a percent pentamer of 30% and a stoichiometry N of 5.
